Test results reported in publication doi:10.1101/2022.06.26.497646.

Target: complex III dimer (CIII2, cytochrome bc1 complex) of Tetrahymena thermophila (Tetrahymena thermophila (endogenous))
Test: cryo-EM structure

- stoichiometry N: 2
Substance: complex III dimer (CIII2, cytochrome bc1 complex) of Tetrahymena thermophila
